Experimental findings from the NTF2 design screens of Basanta et al. (2020) are described below.

The nature of the data set: protease stability score; higher = more stable; yeast display proteolysis, trypsin and chymotrypsin.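 Further: relative to predicted unfolded state with 0 unfolded-like and 1 meaning tenfold more protease.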
In turn, “DEQEEDDREAVKHALEVWETGDERVLWELFDPHVRIIVGDKHVHGREHFLRLTHELKRKVKGIRFDIRHVNLYDGRIEMDTDLEVDGRKHKTTIIAKKVNGRWILESIEIR” yielded a protease stability score of 1.45. With “DEQEEFSHRIMRLLIDLWHTGDWTLIEQYLDPNVRFEVGDKRHHGRESAVKALLELHRRLGVKHFDVKDKDQQGEKLVVVLEDRAENHHMEHELIVVKIDGRWTNHSIISRIH” the figure was 1.01. With “DEQEEHLHEMVRRFLHHFLTGDWKTLHRMFDPNARYHINGQDHVGREEINRFWREHWEHARIHDLRIKSVELFENRSHIIGHLDGNIDGKEVRTDVEIILVIVNGRVRYIEVRQH”, the protease stability score is 1.52. In turn, “DEQEEHVEKLVHLLLRRFKTGDEEFWRRLADPRTRLHVGDKHHHGRETFMKVFRHLIEDLGIDHRIEKHFEVINGVLHIHQIIVVDGQEFELRIHVFVVDGKVKSIDVSIHTR” gave a protease stability score of 0.896. In turn, “DEQEEKLERMYKLWLELHRTGDEEILTELIDPTARLEVGDKSFHGREILIEWFHRELKRIDHKEVRERHIEIQGEWLHAEIEVIIIVNGREIRITTELIIVTINGKIKSINIKIR” returned a protease stability score of 2.23.

“DEQEELSQLLAEIVIELTKTGDEHTLERLMDPHVRANINGVELHGRKKVREFLEEWLRRVKNVRLHIDDRTVQGEKIIVDGTWNVGDKSFRIEFIVIIINGRHTSFNVLDI” had a protease stability score of 1.51.

“DEQEESSRIIHKLIEHVAETGDWREWRKLLDPNTRLDVNGKEFHGWEKLLEHLEEHLDLLGVTKFTLRIQIRSMETQGNYVFIVGITHIHQGDKEIHRFTELIVLKINGKWLMKEIRFR” had a protease stability score of 1.37. Sequence “DEQEESTRIAMELVLRSLKTGDERTVSELVDPNVRYEQGDKEYHGWESASEVVRRLGVDHFIIHDIKIQGNKLHLHGELVVGDYTLKYHIIVLKVNGRWQITRMHTI” displayed a protease stability score of 1.2. Take “DEQEHVAERIVNDLNHSMETGDEHRIRELVDPHVRVIIGDKELHGMEEFIRWLREFGVERIRVRLKRFSFVGNKIRLDTVMNINGQNVDTKLIIEKVDGRWLLRSIHVD”: the protease stability score was found to be 2.18. As to “DEQEKEAKRVVEEILEILLTGDFESFLRNADPNVRIIIGDKDYWGREHTKRLLTDWRREMRVKHIDVRDIEVQGNKVKLHLESDLEINGRRTRTEMEIIVVTFNGRFESLEIRTV”, the protease stability score came to 1.75. The sequence “DEQEKELEEFLKLLLYAIWTGDEDTITELADPNVRMHIGDKLNHGWEILSDRLTEIRSDIHDFKLRHIETIGNKMTLFGDLNGQINVGDKEKRTIIHMILHVHKIDGRWLLTHIHFD” gave a protease stability score of 0.265. The sequence “DEQEKFSKEMARLFIELRLTGDWETFTHLADPDVLWEIHVDGQSERNIGWESVRHAMEKERHELRIEHIHIRDVKIQGNKIHINTEVVGQFNGRRFIVDSRIHIHIVNGRIKDVTIEIE” registered a protease stability score of 1.16.

The sequence “DEQEKHLKKISEDLLRIWLTGDEDTFREMADPDMRFIDEDHELHGREELIRMMREFWHKFKNARIEIHHVEVIGEYNNVDIRLSVDGRVVDVKLHFLIVNGRLKKVEVRER” came in with a protease stability score of 2.07. For the sequence “DEQEQHAFKFFEHHTEILKTGDWEEVRKNLDPHVRLHVNGVEMHGMEHATELALKEDTEIRSELRLEDVDVQGDKVRFDIRLIYHIGDKTIVHKIDLVMIKINGRWLVHSIHVE”, the protease stability score worked out at 0.36. In the case of “DEQERAQEALRRFLRVFQEGDPDRARQQADKDVQMVVGDKEYEGREQVSRAIESLRERVDEFHITVRRITVSGNRVVVDAKLKLNINGKEDDVTLKLVIDVSGDKISIKRVEVR”, the protease stability score was 1.16. On to “DEQERAYELALRTIEHDLRTGDEKSLQENADPNTRLLVGDKELVGWELFIKLMREIRIRHIEVRHMEVQGNKLIFDGKVDGEIGDKRVEYETEIILEKVDGQWRIKEKRLH”, for which the protease stability score came out at 0.862. In the case of “DEQERHAEEFVREHMNAWVTGDWEMLIRQLDPNTRFIQGDKRHHGREALHYMRERVDHIKSVHIDRVDVYNGRVIIDIELIGLIDGRDVTFHVHIITKKIDGRWIVHELRHE” it was 0.82; in that of “DEQERIIRRLTELFTRAEKTGDWKNFLELADPHVRLKYGEFDHIGREEFYTLKEHVDKKLGIEFRDTDIKDLVVVGDKAVSHLTNDGEVNGVRHELSLNVVISKFNGRWELEQVEIK”, 0.897.

For “DEQERLMRKLAEIIVEAIITGDWRSLAELFDPDVRIDINGRELIGRETWVTWLQEEYKRFKNQRIELHIRDVDVQGDYSHIDGHSRIVIGDFVFTTEIHTEIVIIDGRVHSMHHHVK”, the protease stability score came out at 1.18.

Sequence “DEQERRSRELLHLWLELFETGDEDNMQEFLDPNVRLIIIQGDNQVNHHGWENMVKIAKFYKNMQIKVHDVEFQGDKVIMDTRLLVDGRLRHTTVILDIVNGVIKHVEIRYS” showed a protease stability score of 1.69.

“DEQETHNNNILERLIRILHTGDEHIYEHLFDPHARLHIGDKRFHGREELSRWLRRLGVRWEHFIERDVEVQGEKLRIEGERTVHIDGVRHHHRTEIIIIVIDGKIKSYEERHV” gave a protease stability score of 0.572. In the case of “DEQFKEQKDMHRELEEALLTGDEESWHRLMDPNTRLFFEGRIHHGREEVVRAIREIRRRFGFKVIKRFEVEHVEIIDGRVDIRTIIRGEVNGRDSSLDTRLILNKIDGKWVIQSIIIE” it was 2.2. The sequence “DEQHEEAERAMEHMNRIEHTGDEDDLDRLMDPRTKIEVGDKELHGRHLWRVFLREARIHDSKIRDIRVIGDKVTFHTEVRITINGVEVRVHVIMIIEKVDGKWLVHRVIIR” had a protease stability score of 1.35. In turn, “DEQHKEVRTFLEIHINMRATGNEEILFHQVDPHVRLIINGRQFHGWEEYEKFAHTSARFFKNVQIRIHRVEVYIQGDKIHVNMHVWYNVNGQTMEVDLHSEMIKVDGQWRLDSEIISIR” returned a protease stability score of 1.33. Take “DEQKHVFNNVLRWLLESLETGDEEDLERLMDPNTRLHINGQDLHGREALRKHIEHRLKSLGVDHVHLRVHDVHIIDGKIEVDSELDLKIGDKEIRMKVRLIALKINGRWLVKHFDVT”: the protease stability score amounted to 1.29. The sequence “DEQKNWAKIMLELLEHAWRTGDEHTLQELADPNTRLNIGDKDIIGWDLILTVLIEIRMSFSYRLEEVHTFENHVVLRTRLIRVLHFDGKSTEFVKETELYIEKVDGRWILRHIVIK” yielded a protease stability score of 1.29. In turn, “DEQNELLDRLSTILLRLLWTGDEDQWLRLADPDMKLDVGNFKTVGRERVIEIFRAWERHIRVERMHLEDTKLQGDFYFSDYRVDGQINGQRTDTRVIYIFVVVNGRMKSIKVIIE” displayed a protease stability score of 1.34.

Consider “DEQQEDAEHATELLLRLLETGDWSTFEKLMDPHVRVDIGDKHLHGREMSSHFIKELVERYPNLRISFKDMRVQGEFIHVIGEVNFNGQRFHSEWVVLKVDGRWTINSVRIE”, for which the protease stability score is 1.28. Turning to “DEQSRVSEEVIKIWLESVNTGDEKSLSELIDPNVKIHVNGKKMHGWRDAEDHARRIDHMHVEDFKIESIQTQGDFAILHGRLVYSRIVNGVELHSDEHVEMVILKYNGRWSIEEVRVR”, the protease stability score came out at 1.27.

On to “DEQTELEDKMRELIMRTWDTGDEKLLQELADPDARAHFNINGQTDSRHGREEILRLFIKLWEILGVDHLHLQHVSVIDGKFHIHQEVRYDGKVTFLHIHVWIVNGRNRQFNVHIEHR”, for which the protease stability score was 0.407.

“DERDEAEKVLMKILLDNHHTGDEESLERLIDPNAKIIYGDKDYVGWELMIEWVRHARVHRVEIKDSRVQGDKVNLDGHEDGNINGKRRRTNVIVYLLKINGRWFFHSIQID” gave a protease stability score of 2.17. As for “DERDEEAHRMTETFYELQRTGDEESTHHLADPHVKFEYLIGDKYFEIHGWDRVLEFWLRYKGVREEIDHRRVRVINGKIHIELIVKIRIGDKTHVHRIELNIEKVDGRWILREVRVEVK”, the protease stability score was 1. Turning to “DERDEETRRAIEWWVEVLKTGNFKDIKELADPNARVHQGDKHFHGMDHFLDFLERLGIDHVQINHIHYFDGKIEIDHHVRIGDKETRVIFISDKIDGRWRITEVQFH”, the protease stability score amounted to 1.13.

Sequence “DERDEHAHHFFELLLKMWETGDEHELIKFFDPDPRFIYNGKELHGREIAEEFIKEWRVHDMRVKRINVQGEKVIFDGIMDGEFNGKRIFIETHIYMTKVNGKWRTKFIEFN” came in with a protease stability score of 1.42.
